Test results reported in patent US20230212587A1, “Mutant Hydroxyphenylpyruvate Dioxygenase Polypeptide, Encoding Gene Thereof and Use Therefor” (Beijing Dabeinong Biotechnology Co., Ltd., priority 2019, published 2023).
Numbering of substitutions follows the chain as printed. Names may count otherwise.

B1: GmHPPD-02: native Glycine max HPPD, SEQ ID NO: 75 (protein)
chain: MPMYTPSLSAPSSNHIQPSVTLPLYITTTKLNLKQQHHTTPMPIPMCNEIQAQAQAQAQPGFKLVGFKNFVRTNPKSDRFQVNRFHHIEFWCTDATNASRRFSWGLGMPIVAKSDLSTGNQIHASYLLRSGDLSFLFSAPYSPSLSAGSSAASSASIPSFDAATCLAFAAKHGFGVRAIALEVADAEAAFSASVAKGAEPASPPVLVDDRTGFAEVRLYGDVVLRYVSYKDAAPQAPHADPSRWFLPGFEAAASSSSFPELDYGIRRLDHAVGNVPELAPAVRYLKGFSGFHEFAEFTAEDVGTSESGLNSVVLANNSETVLLPLNEPVYGTKRKSQIETYLEHNEGAGVQHLALVTHDIFTTLREMRKRSFLGGFEFMPSPPPTYYANLHNRAADVLTVDQIKQCEELGILVDRDDQGTLLQIFTKPVGDRPTIFIEIIQRIGCMVEDEEGKVYQKGACGGFGKGNFSELFKSIEEYEKTLEAKRTA
modifications: Glycine max; GmHPPD Amino Acid Sequence
B2: GmHPPDm-F372A-02: Glycine max HPPD mutant F372A, SEQ ID NO: 78 (protein)
chain: B1 chain with F425A
modifications: GmHPPDm-F372A Amino Acid Sequence
B3: CaHPPD-02: native Cicer arietinum HPPD, SEQ ID NO: 81 (protein, listed as Cicer arietinum)
chain: MGTIETQTGFKLVGFNNFVRTNPKSDRFKVKRFHHVEFWCPDATNTARRFSWGLGMPIVAKSDLSTGNQTHASYLLRSGDLNFLFTAAYSPSISLSAPHPTASIPSFSAPTSFAFSASHGLGVRAVAIEVDDAEFAYTTSVNHGAIPSSPPVVLDNRVKLAEVQLYGDVVLRYVSYNDPIETSNPNPNHWFLPGFEPVEETSSNQSIDFGIQRLDHAVGNVPELSSALNYVKQFTGFHEFAEFTAEDVGTSESGLNSTVLANNEETVLLPMNEPVYGTKRKSQIQTYLEHNEGAGLQHLALMSNDIFKTLREMRKRSGIGGFEFMPSPPPTYYSNLKKRVGDVLNDEQIKECEELGILVDKDDQGTLLQIFTKPVGDRPTIFIEIIQRVGCMLKDDEGKEYQKGGCGGFGKGNFSELFKSIEEYEKTLEIKRTA
modifications: CaHPPD Amino Acid Sequence

Test system: Arabidopsis thaliana T1 plants
Assay: Topramezone tolerance of transgenic Arabidopsis thaliana T1 plants (pesticide damage grade by bleached leaf area, score, resistance evaluation)
Type: in vivo
Conditions: HPPDs from different species; number of plants (of 16) in this grade; topramezone 25 g ai/ha (1x), 7 DAT
Outline: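 Herbicide tolerance was judged per plant on a bleaching scale (grade 0 no bleaching to grade 3 fully bleached) 7 DAT. Topramezone doses were 0, 25, 50 and 100 g ai/ha on 18-day-old T1 and wild-type plants.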

| Molecule | Classification and statistics of pesticide damage grade Grade 0 | Classification and statistics of pesticide damage grade Grade 1 | Classification and statistics of pesticide damage grade Grade 2 | Classification and statistics of pesticide damage grade Grade 3 |
| --- | --- | --- | --- | --- |
| B1 | 0 | 0 | 0 | 16 |
| B2 | 0 | 12 | 4 | 0 |
| B3 | 0 | 0 | 0 | 16 |

Same assay, conditions: HPPDs from different species; number of plants (of 16) in this grade; topramezone 100 g ai/ha (4x), 7 DAT

| Molecule | Classification and statistics of pesticide damage grade Grade 0 | Classification and statistics of pesticide damage grade Grade 1 | Classification and statistics of pesticide damage grade Grade 2 | Classification and statistics of pesticide damage grade Grade 3 |
| --- | --- | --- | --- | --- |
| B1 | 0 | 0 | 0 | 16 |
| B2 | 0 | 0 | 0 | 16 |
| B3 | 0 | 0 | 0 | 16 |

Same assay, conditions: HPPDs from different species; score for pesticide damage 0-100; topramezone 25 g ai/ha (1x), 7 DAT

| Molecule | Scores |
| --- | --- |
| B1 | 100 |
| B2 | 42 |
| B3 | 100 |

Same assay, conditions: HPPDs from different species; score for pesticide damage 0-100; topramezone 100 g ai/ha (4x), 7 DAT

| Molecule | Scores |
| --- | --- |
| B1 | 100 |
| B2 | 100 |
| B3 | 100 |

Same assay, conditions: HPPDs from different species; topramezone 25 g ai/ha (1x), 7 DAT

| Molecule | Resistance evaluation |
| --- | --- |
| B1 | non-resistant (non-resistant plants (scores 68-100)) |
| B2 | poorly resistant (poorly resistant plants (scores 34-67)) |
| B3 | non-resistant (non-resistant plants (scores 68-100)) |

Same assay, conditions: HPPDs from different species; topramezone 100 g ai/ha (4x), 7 DAT

| Molecule | Resistance evaluation |
| --- | --- |
| B1 | non-resistant (non-resistant plants (scores 68-100)) |
| B2 | non-resistant (non-resistant plants (scores 68-100)) |
| B3 | non-resistant (non-resistant plants (scores 68-100)) |
